The labels stand for the following.
B1: Tripartite motif-containing protein 49C, residues 87 to 133; numbered along this chain, P0CI26 (parent)
chain: SSEEQMCGTHRETKKIFCEVDRSLLCLLCSSSQEHRYHRHRPIEWAA

± gives the uncertainty stated by the source.

The series covers variants of B1. The series is described as follows: abundance fitness (aPCA) (normalised: wild type 0, dead -1); higher = more abundant; growth selection in yeast, the domain comes from the species named. To be noted: Homo sapiens.
As for SSEEQMCGTHRETKKIFCEVDRCLLCLLCSSSQEHRYHRHRPIEWAA, the abundance fitness is -0.055 ± 0.13. Take SSEEQMCGTHRETKKIFCEVDRTLLCLLCSSSQEHRYHRHRPIEWAA: the abundance fitness was 0.409 ± 0.14. As for SSEEQMCGTHRETKKIFCEVDRSLLCLLCSSSDEHRYHRHRPIEWAA, the abundance fitness was -0.264 ± 0.23. For SSEEQMCGTHRETKKIFCEVDRSLLCLLCSSSFEHRYHRHRPIEWAA, the abundance fitness was -0.237 ± 0.16. As for SSEEQMCGTHRETKKIFCEVDRSLLCLLCSSSGEHRYHRHRPIEWAA, the abundance fitness is -0.151 ± 0.082. Take SSEEQMCGTHRETKKIFCEVDRSLLCLLCSSSWEHRYHRHRPIEWAA: the abundance fitness is -0.352 ± 0.096. Regarding SSEEQMCGTHRETKKIFCEVDRSLLCLLCSSSEEHRYHRHRPIEWAA, the abundance fitness came out at 0.081 ± 0.12. For SSEEQMCGTHRETKKIFCEVDRSLLCLLCSSSQEHRYHRMRPIEWAA, the abundance fitness is -0.633 ± 0.18. The result for SSEEQMCGTHRETKKIFCEVDRSLLCLLCSCSQEHRYHRHRPIEWAA reads -0.194 ± 0.16. In the case of SSEEQMCGTHRETKKIFCEVDRSLLCLLCSFSQEHRYHRHRPIEWAA, the abundance fitness is -0.313 ± 0.15.

Consider SSEEQMCGTHRETKKIFCEVDRSLLCLLCSPSQEHRYHRHRPIEWAA, for which the abundance fitness is -0.544 ± 0.21. Consider SSEEQMCGTHRETKKIFCEVDRSLLCLLCSWSQEHRYHRHRPIEWAA, for which the abundance fitness amounted to 0.015 ± 0.093.

For SSEEQMCGTHRETKKIFCEVDRSLLCLLCSVSQEHRYHRHRPIEWAA, the abundance fitness was -0.122 ± 0.089. In the case of SSEEQMMGTHRETKKIFCEVDRSLLCLLCSSSQEHRYHRHRPIEWAA, the abundance fitness was -0.718 ± 0.27. As to SSEEQMDGTHRETKKIFCEVDRSLLCLLCSSSQEHRYHRHRPIEWAA, the abundance fitness was -0.589 ± 0.17. The result for SSEEQMFGTHRETKKIFCEVDRSLLCLLCSSSQEHRYHRHRPIEWAA reads -0.957 ± 0.12. As to SSEEQMKGTHRETKKIFCEVDRSLLCLLCSSSQEHRYHRHRPIEWAA, the abundance fitness is -1.08 ± 0.27.

SSEEQMYGTHRETKKIFCEVDRSLLCLLCSSSQEHRYHRHRPIEWAA: the abundance fitness was -0.788 ± 0.11.

With SSEEQMVGTHRETKKIFCEVDRSLLCLLCSSSQEHRYHRHRPIEWAA, the abundance fitness is -0.722 ± 0.15.

Consider SSEEQMCGTHRETKKIFCEVDRSLLCLLLSSSQEHRYHRHRPIEWAA, for which the abundance fitness is -0.977 ± 0.17. As to SSEEQMCGTHRETKKIFCEVDRSLLCLLESSSQEHRYHRHRPIEWAA, the abundance fitness was -0.63 ± 0.12. Regarding SSEEQMCGTHRETKKIFCEVDRSLLCLLWSSSQEHRYHRHRPIEWAA, the abundance fitness is -0.815 ± 0.17. On to SSEEQMCGTHRETKKIFCEVDRSLLCLLKSSSQEHRYHRHRPIEWAA, for which the abundance fitness is -0.776 ± 0.18. For the variant SSEEQMCGTHRETKKIFCEVDRSLLCLLMSSSQEHRYHRHRPIEWAA, the abundance fitness was -0.935 ± 0.18. Take SSEEQMCGTHRETKKIFCEVDRSLLCLLSSSSQEHRYHRHRPIEWAA: the abundance fitness was -1.06 ± 0.14. As to SSEEQMCGTHRETKKIFCEVDRSLLCLLFSSSQEHRYHRHRPIEWAA, the abundance fitness was -1.08 ± 0.2. The result for SSEEQMCGTHRETKKIFCEVDRSLVCLLCSSSQEHRYHRHRPIEWAA reads 0.103 ± 0.088; that for SSEEQMCGTHRETKKIFCEVDRSLHCLLCSSSQEHRYHRHRPIEWAA, -0.081 ± 0.22; that for SSEEQMCGTHRETKKIFCEVDRSLLLLLCSSSQEHRYHRHRPIEWAA, -0.787 ± 0.15.

In the case of SSEEQMCGTHRETKKIFCEVDRSLLRLLCSSSQEHRYHRHRPIEWAA, the abundance fitness is -0.798 ± 0.12.

As for SSEEQMCGTHRETKKIFCEVDRSLLCLLCSSSQEHRYHDHRPIEWAA, the abundance fitness was found to be 0.257 ± 0.12. SSEEQMCGVHRETKKIFCEVDRSLLCLLCSSSQEHRYHRHRPIEWAA: the abundance fitness stood at 0.047 ± 0.077. Turning to SSEEQMCGQHRETKKIFCEVDRSLLCLLCSSSQEHRYHRHRPIEWAA, the abundance fitness worked out at 0.057 ± 0.1.

SSEEQMCGSHRETKKIFCEVDRSLLCLLCSSSQEHRYHRHRPIEWAA: the abundance fitness was -0.127 ± 0.09.

Regarding SSEEQMCGWHRETKKIFCEVDRSLLCLLCSSSQEHRYHRHRPIEWAA, the abundance fitness is -0.339 ± 0.12. In the case of SSEEQMCGMHRETKKIFCEVDRSLLCLLCSSSQEHRYHRHRPIEWAA, the abundance fitness was -0.265 ± 0.099. With SSEEQMCGLHRETKKIFCEVDRSLLCLLCSSSQEHRYHRHRPIEWAA, the abundance fitness stood at 0.151 ± 0.083. Take SSEEQSCGTHRETKKIFCEVDRSLLCLLCSSSQEHRYHRHRPIEWAA: the abundance fitness was -0.57 ± 0.12. With SSEPQMCGTHRETKKIFCEVDRSLLCLLCSSSQEHRYHRHRPIEWAA, the abundance fitness was -0.196 ± 0.12.

SSEQQMCGTHRETKKIFCEVDRSLLCLLCSSSQEHRYHRHRPIEWAA: the abundance fitness was -0.726 ± 0.23. Consider SSELQMCGTHRETKKIFCEVDRSLLCLLCSSSQEHRYHRHRPIEWAA, for which the abundance fitness is -0.278 ± 0.11.

SSEIQMCGTHRETKKIFCEVDRSLLCLLCSSSQEHRYHRHRPIEWAA: the abundance fitness is -0.142 ± 0.15. As for SSEGQMCGTHRETKKIFCEVDRSLLCLLCSSSQEHRYHRHRPIEWAA, the abundance fitness was -0.68 ± 0.091. Then SSEEQMCGTHRETKKIFCEVDRSLLCLLCSSSQEHRYHRHRPIEWAW, with -0.144 ± 0.33. Take SSEEQMCGTHRETKKIFCEVDRSLLCLLCSSSQEHRYHRHRPIEWAN: the abundance fitness was -0.007 ± 0.28. Take SSEEQMCGTHRETKKIFCEVDRSLLCLLCSSSQEHRYHRHRPIEWAS: the abundance fitness is -0.565 ± 0.16. In the case of SSEEPMCGTHRETKKIFCEVDRSLLCLLCSSSQEHRYHRHRPIEWAA, the abundance fitness was -0.251 ± 0.11.

On to SSEEKMCGTHRETKKIFCEVDRSLLCLLCSSSQEHRYHRHRPIEWAA, for which the abundance fitness turned out to be 0.165 ± 0.16. In the case of SSEEQMCGTHRETKKIFCEVDRSLLCLLCSSSQEHRYHRHRPIEWIA, the abundance fitness is -0.863 ± 0.28. Turning to SSEEQMCGTHRETKKIFCEVDRSLLCLLCSSSQEHRYHRHRPIEWWA, the abundance fitness is -0.156 ± 0.1. With SSEEQMCGTHRETKKIFCEVDRSLLCLLCSSSQHHRYHRHRPIEWAA, the abundance fitness is -0.046 ± 0.17.

Turning to SSEEQMCGTHRETKKIFCEVDRSSLCLLCSSSQEHRYHRHRPIEWAA, the abundance fitness is -0.306 ± 0.12.

In the case of SSEEQMCGTHRETKKIFCEVDRSVLCLLCSSSQEHRYHRHRPIEWAA, the abundance fitness is -0.139 ± 0.096. Turning to SSEEQMCGTHRETKKIFCEVDRSRLCLLCSSSQEHRYHRHRPIEWAA, the abundance fitness was -0.213 ± 0.098. For SVEEQMCGTHRETKKIFCEVDRSLLCLLCSSSQEHRYHRHRPIEWAA, the abundance fitness was -0.29 ± 0.11.
